Results on 29 sequences are retold here after the supplement of paper PMC9170038.

The data set concerns MS2 coat protein. As to the kind of experiment: apparent KD of MS2 coat protein; designed switch direction (-1 OFF switch, 1 ON switch): -1; higher = weaker reporter binding. The essentials:
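Stalled E. coli RNA polymerase transcribed designed RNA switches on Illumina chips, which were then titrated with SNAP-549-labelled MS2 coat protein, doubling from 0.7 or 1.5 nM to 3 µM. Steps lasted from 0.8–1.5 h at the lowest concentration to 10–20 min at the highest. The apparent KD is each design's median over clusters of curve-fitted normalised fluorescence.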

Setting [1] is: input ligand: microRNA oligo, concentration not stated.
[2] abbreviates: Eterna round: R95, input ligand: FMN 200 uM.
Where [3] appears, read: Eterna round: R95, input ligand: microRNA oligo, concentration not stated.
Where [4] appears, read: Eterna round: R95, input ligand: none.

In the case of “GCAGCAUAGAUAACAGUCUGAUACAUGAGGAUCACCCAUGUACAGGAUAUGGUCUGGAUUACAGGCCAGAAGGGUACAAGCUGC [Eli exng3 - 014] (Eterna round: R96, puzzle: Exclusion NG 3)”, the “apparent KD of MS2 coat protein” value is, setting by setting: (input ligand: FMN 200 uM) 10.9 nM; under setting [1], 9.69 nM; (input ligand: none) 12.7 nM.
Take “CCCAGUUAGGAAGGAUAUUGUACAUGAGGAUCACCCAUGUAAUAAAUGAGGAUCUCGGGUGUCUACAAGAAGGUCCGGAUAGGC [Ostracism 12 - Jieux - Exclusion NG 2] (Eterna round: R96, puzzle: Exclusion NG 2)”: the “apparent KD of MS2 coat protein” value is 104 nM (input ligand: FMN 200 uM), 38.7 nM under setting [1] and 46.4 nM (input ligand: none).
In the case of “ACAAGCUUUUUGUUUGUCUACAUGAGGAUCACCCAUGUGGGUGUCAGUCAUGCUGGCGUGUGGUGUCGUGGCAGCGC [Sensor V1 S1] (Eterna round: R97, puzzle: Sensor, turn-off variant 1)”, the “apparent KD of MS2 coat protein” value is, setting by setting: (input ligand: FMN 200 uM) 978 nM; (input ligand: none) 1610 nM.
For “UGACAGGAGUAGGAUAUGCCCACCGUCCGACUGGCAGAAGGACUCACAUGAGGAUCACCCAUGUAGUUAUGUAC [Eternabot (L2) Solution 96] (Eterna round: R97, puzzle: Exclusion 6)” the same measures were 20.1 nM and 16 nM.
The corresponding values for “CAGCUGAAAGUGAGGAUAUAGACUGCCUCGGCAGUCUAGAAGGCACAUGAGGAUCACCCAUGUCUCAACAGCUG [BmEx4/1-B2] (Eterna round: R97, puzzle: Brourd's mod of Exclusion 4)” are 70.2 nM and 11.3 nM.
For “AAUAAUAAACAAGCUUUUUACAUGAGGAUCACCCAUGUCCUCUGCUCGUCUUAUCUUGGGCUUUUUUUGGGUUCGGG [-16.4, -45 kcal, A 21%] (Eterna round: R97, puzzle: Sensor, turn-off variant 1)” the same measures were 813 nM and 891 nM.
In the case of “UGAUCAGACCGAGGAUAUAUAUGUAGGACGCACGUGAGUGCGUCCAGUACAUGAGGAUCACCCAUGUAGAAGGCGGUCUGAUCU [JL ENG2 1.96] (Eterna round: R96, puzzle: Exclusion NG 2)”, the “apparent KD of MS2 coat protein” value by setting is: (input ligand: FMN 200 uM) 20.3 nM; under setting [1], 9.99 nM; (input ligand: none) 13.6 nM.
For “ACAUGAGGAUCACCCAUGUGACCACAAUGGCUGAUGUAAAGACAGGAUAUGUGUGAAUAUCUAACACAGAAGGGUCUUGACUGG [Deportation 57 - Jieux - Exclusion NG 3] (Eterna round: R96, puzzle: Exclusion NG 3)” the same measures were 53 nM, 47.1 nM and 47.8 nM.
For “ACAUGACUGCUAGGAUAUAGAUGACAUGAGGAUCACCCAUGUUAUCCCAUGUUGACGGAAACCGACUAGAAGGAGCAGCAUAUG [Ex NG2 #9] (Eterna round: R96, puzzle: Exclusion NG 2)” the same measures were 118 nM, 43.5 nM and 45.3 nM.
Take “UUAUACGGUGAGGAUAUCUCCACUAAAGUGUGAAGAGAAGGCGCUACAUGAGGAUCACCCAUGUCUAUGGGCAG [Ex-6 Malc#16] (puzzle: Exclusion 6)”: the “apparent KD of MS2 coat protein” value is, setting by setting: under setting [2], 905 nM; under setting [3], 262 nM; under setting [4], 320 nM.
For the sequence “GUAUAACAUGUAGGAUAUGCGUGGCGAAGCUAUGCAGAAGGACAUGAGGAUCACCCAUGUUAUAGCGUCUGCGUACAGAUGCUA [Mat - Exclusion NG 1 - Mod of JL - D93] (Eterna round: R96, puzzle: Exclusion NG 1)”, the “apparent KD of MS2 coat protein” value is, setting by setting: (input ligand: FMN 200 uM) 204 nM; under setting [1], 26.2 nM; (input ligand: none) 24.5 nM.
Consider “UAUACUAGAUAGGAUAUACUAUAUAAAUAAUUCGUAGAAGGAUCUACAUGAGGAUCACCCAUGUUAACAGCAGU [JR_E6_Sub005] (puzzle: Exclusion 6)”, for which the “apparent KD of MS2 coat protein” value is, setting by setting: under setting [2], 30.7 nM; under setting [3], 46.6 nM; under setting [4], 46.6 nM.
For the sequence “AACCUGAGGCAAAGCUUUAGGUGUACAUGAGGAUCACCCAUGUAGGAUAUGGUAGGCAAAGCUUACCAGAAGGACAUUAUGAUA [Mat - Exclusion NG 3 - Mod of JL - D52] (Eterna round: R96, puzzle: Exclusion NG 3)”, the “apparent KD of MS2 coat protein” value was determined as 66.9 nM (input ligand: FMN 200 uM), 44 nM under setting [1] and 53.1 nM (input ligand: none).
Take “CCAAGCUACUUCAUUAUCCACAUGAGGAUCACCCAUGUCUAGGCAAUUAUGACCUGCCCGUCAGGAGCUCGUCUUAU [Sensor-V1 #40] (Eterna round: R97, puzzle: Sensor, turn-off variant 1)”: the “apparent KD of MS2 coat protein” value worked out at 35.1 nM (input ligand: FMN 200 uM) and 28.7 nM (input ligand: none).
As for “CCGGAAAGGAAGGAUAUGCUAGACGAGAGUCUAGCAGAAGGUCCUACAUGAGGAUCACCCAUGUGGUCCUCCGG [Mat - Exclusion 6 - Eli Mod - D34] (Eterna round: R97, puzzle: Exclusion 6)”, the “apparent KD of MS2 coat protein” value is, setting by setting: (input ligand: FMN 200 uM) 252 nM; (input ligand: none) 1270 nM.
In the case of “UAAUAGUAUGUUAGGAUAUGCUGGUCGAAAGAUCAGCAGAAGGAACAUGAGGAUCACCCAUGUAGACUAUUUUA [Mod of JL 20 - Jieux - Brourd's mod of Exclusion 4] (Eterna round: R97, puzzle: Brourd's mod of Exclusion 4)”, the “apparent KD of MS2 coat protein” value by setting is: (input ligand: FMN 200 uM) 31.6 nM; (input ligand: none) 17.8 nM.
For “UUUAAUUUUUUUUUUUUACAAGCUUUUUGCUCGUCUUAUACAUGAGGAUCACCCAUGUAAGUGGGAAAUGAAUUAUC [JMF 99] (puzzle: Sensor v3, turn-off variant 2)”, the “apparent KD of MS2 coat protein” value reads like this: under setting [2], 53.3 nM; under setting [3], 419 nM; under setting [4], 77.9 nM.
Take “CCAGACGCUGUGAGGAUAUGAAAAGGUGCUGCUUUUUAGAAGGCACAUGAGGAUCACCCAUGUGGUACCUCGGG [Eternabot (L1) Solution 20] (Eterna round: R97, puzzle: Brourd's mod of Exclusion 4)”: the “apparent KD of MS2 coat protein” value (input ligand: FMN 200 uM) was 397 nM and the “apparent KD of MS2 coat protein” value (input ligand: none) came out at 514 nM.
For “GACUCACAUGAGGAUCACCCAUGUUAGGAUAUAACCUCAUCAACAACGAUUUGGGAGGUUAGAAGGGAUGAUGG [Eternabot (L1) Solution 80] (Eterna round: R97, puzzle: Exclusion 1)” the same measures were 110 nM and 89 nM.
The corresponding values for “CAGUACUGAGGAUAUACAUGAGGAUCACCCAUGUGAACCAGCUAGGAAACUAGCAAAAGUAGAAGGCAGUACUG [828 mod 2 m7] (Eterna round: R97, puzzle: Exclusion 3)” are 2260 nM and 92.5 nM.
On to “CAUGGAUGUGAGCCGCAUUACAUGAGGAUCACCCAUGUCAACAAGCUUUUUGCUUGUCUUACGCGGCGGCAUCUAAA [Abebies] (puzzle: Sensor v3, turn-off variant 1)”, for which the “apparent KD of MS2 coat protein” value is, setting by setting: under setting [2], 11.3 nM; under setting [3], 8.44 nM; under setting [4], 10.3 nM.
On to “CCAUGUCCAGAGGAUAUGUAGCGGAUAACCGCAACAGAAGGCUGGACAUGAGGAUCACCCAUGUGCGCCUUCCA [Vege] (Eterna round: R97, puzzle: Exclusion 6)”, for which the “apparent KD of MS2 coat protein” value came out at 313 nM (input ligand: FMN 200 uM) and 534 nM (input ligand: none).
As for “GCGGUAUUCCCUGGAGUACCAUACAUGAGGAUCACCCAUGUAUAGGAUAUUGCAGGAGACAGCUGCGAGAAGGGUACAGGGUGU [Dierceza] (Eterna round: R96, puzzle: Exclusion NG 3)”, the “apparent KD of MS2 coat protein” value (input ligand: FMN 200 uM) is 26.6 nM, the “apparent KD of MS2 coat protein” value under setting [1] was determined as 14.4 nM and the “apparent KD of MS2 coat protein” value (input ligand: none) was 15.9 nM.
Consider “UAAAUGUGAGGAUAUUCGAUUUACUCGGAGACGAGUAGAUCGGAGAAGGCACAUGAGGAUCACCCAUGUUCCUU [Mat - Exclusion 4 - JL Mod - D10] (Eterna round: R97, puzzle: Exclusion 4)”, for which the “apparent KD of MS2 coat protein” value reads like this: (input ligand: FMN 200 uM) 234 nM; (input ligand: none) 23.2 nM.
On to “GGUUGACAUGAGGAUCACCCAUGUGAGGAUAUGCGAGAGAAAAAAGUGAGGAAGAGAAGCAGAAGGCGCUGUCG [salish99-ex1_r3_014] (puzzle: Exclusion 1)”, for which the “apparent KD of MS2 coat protein” value reads like this: under setting [2], 68.7 nM; under setting [3], 45.1 nM; under setting [4], 106 nM.
“CUGCUCCGUGUAGGAUAUGCAUGCAACCAAUAUGCAGAAGGACAUGAGGAUCACCCAUGUAUGUUAUUAUCACGUGAAGCGUCC [Design 22] (Eterna round: R96, puzzle: Exclusion NG 1)”: the “apparent KD of MS2 coat protein” value came to 27.1 nM (input ligand: FMN 200 uM), 19.5 nM under setting [1] and 29.8 nM (input ligand: none).
On to “UUAAUGUGAGGAUAUCAAGUGUGAUAGAGUAAUGGUAAAUAUGAGAAGGCACAUGAGGAUCACCCAUGUUCUUC [Mat - Exclusion 4 - Mod of JL - D59] (puzzle: Exclusion 4)”, for which the “apparent KD of MS2 coat protein” value under setting [3] was 14 nM.
On to “AUUUAGCAAGCCAGAUCCUACAUGAGGAUCACCCAUGUAGUUCGUCUUAUUUGAAGACAACACAAAAGUGUUGUCUU [Omei Mir OFFv1 B6] (Eterna round: R97, puzzle: Sensor, turn-off variant 1)”, for which the “apparent KD of MS2 coat protein” value was 15.7 nM (input ligand: FMN 200 uM) and 14 nM (input ligand: none).
Turning to “UUUUUAUUUGAAGGAUAUACUUAACAUGAGGAUCACCCAUGUGGUGUUGUGAGUGAGUGAGUUUAGUAGAAGGUCAAUUAUUUU [JMF's solution 18] (Eterna round: R96, puzzle: Exclusion NG 2)”, under setting [1], the “apparent KD of MS2 coat protein” value came out at 359 nM.
